These results are taken from US20230159610A1 (BIOTEST, published 2023).

Substitutions are numbered along the chain they refer to.

Sequences and labels used below:
B1: FcTregV13 (other)
chain: DKTHTCPPCPAPELLGGPSVFLFPPKPKDTLMISRTPEVTCVVVDVSHEDPEVKFNWYVDGVEVHNAKTKPREEQYQSTYRVVSVLTVLHQDWLNGKEYKCKVSNKALPAPIEKTISKAKGTDFTLTISSLQPEDDELTKNQVSLTCLVKGFYPSDIAVEWESNGQPENNYKTTPPVLDSDGSFFLYSKLTVDKSRWQQGNVFSCSVMHEALHNHYTQKSLSLSPGKKTLYLQMNSLRAEDTAKH
notes: TCP on the human IgG1 Fc-part: Treg289 in frame A, Treg084 in frame C, Treg088x C-terminal; also called Construct V13
B2: FcTregV23 (other)
chain: DKTHTCPPCPAPELLGGPSVFLFPPKPKDTLMISRTPEVTCVVVDVSHEDPEVKFNWYVDGVEVHNAKTKPREEQYNSTYRVGTDFTLTISSLQPEDEYKCKVSNKALPAPIEKTISKAKGQPREPQVYTLPPSRDELTKNQVSLTCLVKGFYPSDIAVEWESNGQPENNYKTTPPVLDSDGSFFLYSKLTVDKSRWQQGNVFSCSVMHEALHNHYTQKSLSLSPGK
notes: Human IgG1 Fc-part with Treg084 in frame A; also called Construct V23
B3: FcTregV34 (other)
chain: DKTHTCPPCPAPELLGGPSVFLFPPKPKDTLMISRTPEVTCVVVDVSHEDPEVKFNWYVDGVEVHNAKTKPREEQYNSTYRVVSVLTVLHQDWLNGKEYKCKVSNKALPAPIEKTISKAKGQPREPQVYTLPPSRDELTKNQVSLTCLVKGFYPSDIAVEWESNGQPENNYKTTPPEEQYQSTYRVVSVLTVLHQDWQQGNVFSCSVMHEALHNHYTQKSLSLSPGKKTLYLQMNSLRAEDTAKH
notes: TCP on the human IgG1 Fc-part: Treg289 in frame B, Treg088x C-terminal; also called Construct V34
B4: FcTregV1 (other)
chain: DKTHTCPPCPAPELLGGPSVFLFPPKPKDTLMISRTPEVTCVVVDVSHEDPEVKFNWYVDGVEVHNAKTKPREEQYQSTYRVVSVLTVLHQDWLNGKEYKCKVSNKALPAPIEKTISKAKGTDFTLTISSLQPEDDELTKNQVSLTCLVKGFYPSDIAVEWESNGQPENNYKTTPPVLDSDGSFFLYSKLTVDKSRWQQGNVFSCSVMHEALHNHYTQKSLSLSPGKLNNFYPREAKVQWKVDNALQSGNS
notes: Tregitope carrying polypeptide (TCP) built on the human IgG1 Fc-part: Treg289 in frame A, Treg084 in frame C, Treg134 C-terminal; also called Construct V1
B5: FcTregV14 (other)
chain: B4 chain with Q77N
notes: TCP on the human IgG1 Fc-part: Treg084 in frame C, Treg134 C-terminal; also called Construct V14
B6: FcTregV20 (other)
chain: DKTHTCPPCPAPELLGGPSVFLFPPKPKDTLMISRTPEVTCVVVDVSHEDPEVKFNWYVDGVEVHNAKTKPREEQYNSTYRVVSVLTVLHQDWLNGKEYKCKVSNKALPAPIEKTISKAGGLVQPGGSLRLSCAASGFTFNQVSLTCLVKGFYPSDIAVEWESNGQPENNYKTTPPVLDSDGSKTLYLQMNSLRAEDTAKHVFSCSVMHEALHNHYTQKSLSLSPGK
notes: also called Construct V20
B7: FcTregV32 (other)
chain: DKTHTCPPCPAPELLGGPSVFLFPPKPKDTLMISRTPEVTCVVVDVSHEDPEVKFNWYVDGVEVHNAKTKPREEQYGGLVQPGGSLRLSCAASGFTFEYKCKVSNKALPAPIEKTISKAKGTDFTLTISSLQPEDRDELTKNQVSLTCLVKGFYPSDIAVEWESNGQPENNYKTTGGLVQPGGSLRLSCAASGFTFRWQQGNVFSCSVMHEALHNHYTQKSLSLSPGKKTLYLQMNSLRAEDTAKH
notes: TCP on the human IgG1 Fc-part: Treg009A in frame A, Treg084 in frame C, Treg009A in frame B, Treg088x C-terminal; also called Construct V32

The data set deals with the molecule itself. The data set is described as follows: dimer formation of the expressed construct (self-association), Western blot of transfected cells. (In western blotting, separated proteins are transferred to a membrane and probed.)
B1: the binding result was “binds”. As for B2, the binding result is “binds”. Turning to B3, the binding result was “binds”. The value for B4 was “binds”. Take B5: the binding result is “binds”. With B6, the binding result was “binds”. With B7, the binding result was “binds”.
